Data reported in patent CN117377689A (XENCOR INC, dated 2024).

Biological target: T1, His-tagged human GPC3 antigen (human, UniProt P51654 25-559, limits assumed)
T1 construct: His-tagged antigen captured on HIS1K Octet sensors; also called 人GPC3; human glypican-3
Assay: Octet BLI; His-tagged GPC3 captured on HIS1K sensor, bsAb (1+1 Fab-scFv-Fc) as analyte

T1 sequence (P51654 25-559 limits assumed): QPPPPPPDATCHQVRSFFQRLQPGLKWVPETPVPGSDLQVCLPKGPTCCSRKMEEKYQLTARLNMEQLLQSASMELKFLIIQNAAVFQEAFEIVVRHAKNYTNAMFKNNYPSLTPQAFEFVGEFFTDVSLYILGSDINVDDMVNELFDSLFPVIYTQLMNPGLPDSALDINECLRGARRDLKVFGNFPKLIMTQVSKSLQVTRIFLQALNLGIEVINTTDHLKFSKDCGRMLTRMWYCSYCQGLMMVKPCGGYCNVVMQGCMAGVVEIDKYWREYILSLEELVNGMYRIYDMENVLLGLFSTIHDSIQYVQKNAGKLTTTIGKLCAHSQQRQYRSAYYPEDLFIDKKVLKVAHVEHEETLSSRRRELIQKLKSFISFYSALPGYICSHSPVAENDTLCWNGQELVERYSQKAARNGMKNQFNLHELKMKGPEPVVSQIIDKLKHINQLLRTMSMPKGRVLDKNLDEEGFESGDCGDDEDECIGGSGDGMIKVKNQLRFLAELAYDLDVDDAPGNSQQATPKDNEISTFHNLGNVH

B1: XENP35843 (GPC3-A H1.1_L1.16, 1+1 Fab-scFv-Fc bsAb with CD3 High-Int #1 scFv) (bispecific antibody)
chain 1: QVQLVQSGAEVKKPGASVKVSCKASGYTFTDYEMHWVRQAPGQGLEWMGALEPKTGDTAYSQKFQGRVTMTADKSISTAYMELSRLRSDDTAVYYCTRFYSYTYWGQGTLVTVSSASTKGPSVFPLAPSSKSTSGGTAALGCLVKDYFPEPVTVSWNSGALTSGVHTFPAVLQSSGLYSLSSVVTVPSSSLGTQTYICNVNHKPSDTKVDKKVEPKSCDKTHTCPPCPAPPVAGPSVFLFPPKPKDTLMISRTPEVTCVVVDVKHEDPEVKFNWYVDGVEVHNAKTKPREEEYNSTYRVVSVLTVLHQDWLNGKEYKCKVSNKALPAPIEKTISKAKGQPREPQVYTLPPSREEMTKNQVSLTCDVSGFYPSDIAVEWESDGQPENNYKTTPPVLDSDGSFFLYSKLTVDKSRWEQGDVFSCSVMHEALHNHYTQKSLSLSPGK
chain 2: not shown
chain 3: DVVMTQSPLSLPVTLGQPASISCRSSQSLVHSSGNTYLHWYQQRPGQSPRLLIYKVSNRFSGVPDRFSGSGSGTDFTLKISRVEAEDVGVYFCSQSTHVPPTFGSGTKLEIKRTVAAPSVFIFPPSDEQLKSGTASVVCLLNNFYPREAKVQWKVDNALQSGNSQESVTEQDSKDSTYSLSSTLTLSKADYEKHKVYACEVTHQGLSSPVTKSFNRGEC
Question: With B1 as the binder, how does the Kd read?
Answer: The Kd was 0.1 µM.

B2: XENP36140 (GPC3-A H1.1_L1.31, 1+1 Fab-scFv-Fc bsAb with CD3 High-Int #1 scFv) (bispecific antibody)
chain 1: QVQLVQSGAEVKKPGASVKVSCKASGYTFTDYEMHWVRQAPGQGLEWMGALEPKTGDTAYSQKFQGRVTMTADKSISTAYMELSRLRSDDTAVYYCTRFYSYTYWGQGTLVTVSSASTKGPSVFPLAPSSKSTSGGTAALGCLVKDYFPEPVTVSWNSGALTSGVHTFPAVLQSSGLYSLSSVVTVPSSSLGTQTYICNVNHKPSDTKVDKKVEPKSCDKTHTCPPCPAPPVAGPSVFLFPPKPKDTLMISRTPEVTCVVVDVKHEDPEVKFNWYVDGVEVHNAKTKPREEEYNSTYRVVSVLTVLHQDWLNGKEYKCKVSNKALPAPIEKTISKAKGQPREPQVYTLPPSREEMTKNQVSLTCDVSGFYPSDIAVEWESDGQPENNYKTTPPVLDSDGSFFLYSKLTVDKSRWEQGDVFSCSVMHEALHNHYTQKSLSLSPGK
chain 2: not shown
chain 3: DVVMTQSPLSLPVTLGQPASISCRSSQSLVHSNGNTYLHWYQQRPGQSPRLLIYYVSNRFSGVPDRFSGSGSGTDFTLKISRVEAEDVGVYFCSQNTHVPPTFGSGTKLEIKRTVAAPSVFIFPPSDEQLKSGTASVVCLLNNFYPREAKVQWKVDNALQSGNSQESVTEQDSKDSTYSLSSTLTLSKADYEKHKVYACEVTHQGLSSPVTKSFNRGEC
Question: For B2, which Kd is on record?
Answer: Its Kd is 0.4 µM.

B3: XENP36941 (GPC3-A H1.1_L1.29, 1+1 Fab-scFv-Fc bsAb with CD3 High-Int #1 scFv) (bispecific antibody)
chain 1: QVQLVQSGAEVKKPGASVKVSCKASGYTFTDYEMHWVRQAPGQGLEWMGALEPKTGDTAYSQKFQGRVTMTADKSISTAYMELSRLRSDDTAVYYCTRFYSYTYWGQGTLVTVSSASTKGPSVFPLAPSSKSTSGGTAALGCLVKDYFPEPVTVSWNSGALTSGVHTFPAVLQSSGLYSLSSVVTVPSSSLGTQTYICNVNHKPSDTKVDKKVEPKSCDKTHTCPPCPAPPVAGPSVFLFPPKPKDTLMISRTPEVTCVVVDVKHEDPEVKFNWYVDGVEVHNAKTKPREEEYNSTYRVVSVLTVLHQDWLNGKEYKCKVSNKALPAPIEKTISKAKGQPREPQVYTLPPSREEMTKNQVSLTCDVSGFYPSDIAVEWESDGQPENNYKTTPPVLDSDGSFFLYSKLTVDKSRWEQGDVFSCSVMHEALHNHYTQKSLSLSPGK
chain 2: not shown
chain 3: DVVMTQSPLSLPVTLGQPASISCRSSQSLVHSNGNTYLHWYQQRPGQSPRLLIYQVSNRFSGVPDRFSGSGSGTDFTLKISRVEAEDVGVYFCSQNTHVPPTFGSGTKLEIKRTVAAPSVFIFPPSDEQLKSGTASVVCLLNNFYPREAKVQWKVDNALQSGNSQESVTEQDSKDSTYSLSSTLTLSKADYEKHKVYACEVTHQGLSSPVTKSFNRGEC
Question: For B3, which Kd is on record?
Answer: The Kd was 0.07 µM.
